{"source": "a protein production outcome set (Wang et al. 2014)", "assay": "label from the status in PepcDB records"}
{"sequence": "MIWLQLVVVLAAIFVGARLGGIGLGVMGGLGLGVLTFVFHLQPTSPPIDVLLMIAAVVTAAGVLQAAGGLDYLVSVAERILRSNPDRITFLGPLVTYVFTLFAGTGHVAYSVLPVISEVARETGVRPERPMSISVIASQQAITASPISAATVALLGMLSTGAAGAAFHIELIDILKVCIPSTLLGVLAAAFVANRMGKDLEEDPEYQDRVARGLAAPTGRQALAAADGGEPVRAAAPVTAKIAVGIFLAAALAVVLFGSFPGMRPQWTTASGVTKLGMPHAIEMVMLSAAALMLMVCRVDVSKVATGSVFGAGVQAVIAIFGIAWMGDTFFAGNMEVLGGSIKGMVTAAPWLFAAALFALSVLLYSQAATVRALMPLGIALGIPAPALMAMFPAVNGYFFIPNYPTIVAAINFDRTGTTRIGRWVLNHSFMVPGLISTVVAIATGLVIVRFMF", "values": [{"measurement": "protein production", "result": "failed"}]}
{"sequence": "TLDAPLQRRMEDLLMGWRARLPERTSAAILVVEAENMAVRAYVGSVDISDVKRFGHVDMVTALRSPGSTLKPFLYGMAMDAGLIHSESLMQDVPRRYGDYRPGNFSTGFGGPVAASSALSMSLNLPAVQLLEVYGPKRFAAELRNGGVPLTLPPLAEPNLALILGGAGSRLEDLVAGYSAFARGGRSADVRLQPQDRLRERRMMSPGAAWIIRRILSGQSRPDIDPRAELVQRPQLAWKTGTSYGFRDAWAIGVGPRFLVGVWIGRPDGTPVPGQFGLASAAPLMLQVHDVLVNRDSQRGI", "values": [{"measurement": "protein production", "result": "failed"}]}
{"sequence": "MATFFLVSFLSFSKWKEKRQVGLWGPEAAVTEEEEEEAGARRSGPGLAGRRLRGKGRRGRVASPAGRPDTLSRRGAGERAGCLGAGDRGLRHSDRHSPLGRGRAAPGMATSRQTASPRTRMDYLYSCQVDAMHSGMSVTRLVTQPDVLPAHRRRDIKMAAPRSCVLWSYCGHGWSRLAGDCRLPGFRRSWLGATLSARSLSQEKRAAETHFGFETVSEKEKGGKVYQVFQSVARKYDLMNDMMSLGIHRAWKDLLIRKMHPLPGTQLLDVAGGTGDIAFRFLSYVQTQHERKQRRQLRTRQNLSWEEIARKYQSKEDPLGGSLVMVCDINREMLKVGKQKALARGHTADLCECDAKLVYTVSFSSRSFTQALQEAHRVLKPGGRFLCLEFSQVNDPLISRLYDLYSFQVIPVIGEVIAGDWKSYQYLVESIRKFPNQEEFKDMIEDAGFQKVTYESLTSGIVAIHSGFKL", "values": [{"measurement": "protein production", "result": "failed"}]}
{"sequence": "MICLEKVEDIPRLQELFAQILIVHHQARSDVLKVKGSKFTDKELEGVIGDANKPVFVYEDEAGTILCHLFLIIKEVSENDGPQKPIKTLFIDDLCVEEKARGQKLGEKLYQFALDYATEQECYNATLHVWNDNQGTLDFYEHLGVKPRYTEMKTVLKLEHHHHHH", "values": [{"measurement": "protein production", "result": "failed"}]}
{"sequence": "MDMRVSWFLLLLPFVLTSALAATSAASHASGPPAFMGQLTLLLLVAGATAFASFRLGLVPIIGFLFAGVLAGPSALGIIDDPALIGAASEIGVMLLLFTIGIEFSLDKLARIFRLIFVGGGLQVLLTVAAVTGVLLAFGVSLPNAVFTGFLLSLSSTAIVTKILESRGGVGSPTGQASLGILIFQDLAVVVMVLLVPMLAGQGGGAGGLVVALLKAGGIVAAVLLLARRVVPKLLEVVARTCSQEIFLLSTLSLCFATAYLTSLAGVSLALGAFLAGLLVSESRFGQQAFGEILPLQILFSAAFFLSVGLQLDLGFLWTHLPLVLGAVAVFAVLKALAAALSVRLLGFPLATAAATGWLLAQVGEFSFVLESSGRALGLSPAGLGETGTQTFIAATVLLMALTPVMATLGERLGALGRARPAPTAAPAEAPTRAEPNPEAPLAHLSGHVLVAGFGDHARRLVKGLAAQQVPFGVLTLSPDGAAQVTAHGYPVLIGDYARAGLLGDAGLASARALVVLDDVPEMTARVIGVARTLNPELTIVAHTDEPGEIATLRGVGATHVLTSTDAVARGVLGL", "values": [{"measurement": "protein production", "result": "failed"}]}
{"sequence": "MKFSYKFSNLLGTIYRNGNLVFTPDGNSVISPVGNRITVYDLKNNKSRTLSLESRYNYTNIALSPDGSLLIAVNEKGEAQLISMMSCTVIHRHKFQTGVQCICFSPNGAFFAVAVQNVVLIFCAPGEITGEYNPFVLRRRFLGGFDDVTWLDWSSDSRLLAIGCRDSSTKIVAINYTKNFRTYNLSGHTDAIVACFFEANSLHLNTISRNGQLCLWECSLAPSDLEDAERPKIAPPQRKKEKKAVSDNESEDDVENVVEKDALKEESTKEAEDVNHIKNEDETKSHPFFYKKITRHYLADEPRKEQRDVQLTAANYNTRTKVLVVAFSSGAFYLYELPDVNMIHSLSISDYPISAALFNCTGDWVALASREIGQLLVWEWQSEQYIMKQQGHSSEMTCIAYSSDGQFIATGGEDSKVKLWNTQSSFCFVTFSEHTSGVTGIQFSRNKKFLVSSSLDGTVRAFDVNRYRNFRTFTSPNPAQFSCVAVDYSGELVVAGGQDVFDIFLWSVKTGKLLEIISGHEGPVVSIAFSPVATSSTLVSGSWDKTVKIWNCLESNSEHETIDAVSDVTNVTFSPSGEEIAVATLSGNITIFDIKSAGQVTTIEGRNDLSAGRLETDIITARKNAQANYFSTIEYSADGECILAAGKSANICIYHVREAILLKKFEITQNHSLDGLNDFISRKHLSEFGNMALVEEREELEGGRVAIRLPGVQRGDMSSRRFQQEVRVFSVKFSPTGQAFAAAGTEGLCIYALDKGVVFDPFDLSLEVTPKAVHESLKQQNYTKALVMSLKLNEPNLIALVLERVPYKDVELVCADLSPEFAQRLLQQLARQLQSTPHIEFYLQWSCCLLTKHGNQDGVFQHTGLLALHEVLSRKYEMLNKICDYNKYTLKVLLDRADKLEQKNEGKPNATEEDSDEEMLLIRSKDDENGQAQFSDEEESDSGSEEEMA", "values": [{"measurement": "protein production", "result": "failed"}]}
{"sequence": "MMRLLGILFILLSSSFNVYAQLPQVSAGSIERLTSFPSAFVPPRNIDIWLPAGYDKQQRYAVLYMHDGQMLFDATTSWNKQEWQIDEVASRLIKAGKTQPFIVVGIDNAGENRHSEYFPQQPFENLSQAQQTALYQLQRTKNQALFSQQVYSDRYLKFLVTELKPYIDSHYSVYTDAAHTFVMGSSMGGLISLYAISEYPHIFGGAACLSTHWPGTFEQQNNPIPPAFFNYMQQKLPDPSTHKLYFDHGTATLDAWYPQLQAKADKIIEAKGYTSQNWQSLIFEGAEHSEHAWAARLDIPLIFLLA", "values": [{"measurement": "protein production", "result": "failed"}]}
{"sequence": "MHGHGGYDSDFSDDEHCGESSKRKKRTVEDDLLLQKPFQKEKHGKVAHKQVAAELLDREEARNRRFHLIAMDAYQRHRKFVNDYILYYGGKKEDFKRLGENDKTDLDVIRENHRFLWNEEDEMDMTWEKRLAKKYYDKLFKEYCIADLSKYKENKFGFRWRVEKEVISGKGQFFCGNKYCDKKEGLKSWEVNFGYIEHGEKRNALVKLRLCQECSIKLNFHHRRKEIKSKKRKDKTKKDCEESSHKKSRLSSAEEASKKKDKGHSSSKKSEDSLLRNSDEEESASESELWKGPLPETDEKSQEEEFDEYFQDLFL", "values": [{"measurement": "protein production", "result": "not failed"}]}
{"sequence": "MSSITADNAGQYGDSRKLAARARLHSQYTIAETAWFPWVAAQLSLKPGDRVLDVGCGPAWFWAATTGLLPADLDLTLTDLSPGMVDEAVARCSALPFGSVRGCQADAAALPFEDGAFDAVVAMHMLYHLTDPVAGIADMSRVLKPGGLLAVTTNGAGNMREIYALTTLFGSAPSDPAAEAFGYDAAERSMRSQFGNVTMSQHPASLRITEPEDVFLALTSYPPGDGAGEPQLTRFRQAIADAFSQRSGVLEVSKETALFLSRKTV", "values": [{"measurement": "protein production", "result": "failed"}]}
{"sequence": "MDKNIKNKAEELIKDLIQKIDNNPYDAQAYYNLGVALNDAHSAEQAEELFKKALNIFANSKEKSSLMHYGLGNVYYTNSIYDKAIVEFKKVQSEKLKQDSMLMMAQAYYAQENYPQAMMYALTVSENTKHNVDAISLLASCFMATGDLTNARKYYLKALEYDKDNVEVLFQLGVIELSLSGEAGKYFDRVKNLDNEYYKKMQQRLADVQRFLMTQKKGKSDE", "values": [{"measurement": "protein production", "result": "failed"}]}
{"sequence": "MDINMFILYFFIYSVLGWAWEEVFCSISEKKLVYRGFLYGPYCPIYGFGVTTVLMMILPFQNNLWALFIFSMIICTVIEYVTATILEALFHTTWWDYHNWPLNVKGRICLPISIFWGFACIIVVRFLHPLVTEFADWVLSWGGWIIPALIVVLMLIDTIKSVTSMLSFQKVLAEFNEKLTAQANELKASVKERAKEFEEGLLKKQENVDMKIAEMEAKRKQDKELAASMRKLKFNERRMLKSFPKMKVKRAAPFKNFNKSILRVDKQKRK", "values": [{"measurement": "protein production", "result": "failed"}]}
{"sequence": "MSRDTVRPPCVHPGFARPLPARASLPFLGRVSPGDSSRRAGRDGRKWGMESGPAIFAGTVFALFGGGLLTWTVSRVRHRAPVAHDVNPVASATLAGLAAVSALVLGAWCFTHL", "values": [{"measurement": "protein production", "result": "failed"}]}
